Measurements as given in article PMC6467919, “Designed Mutations Alter the Binding Pathways of an Intrinsically Disordered Protein” (Scientific Reports, 2019).
Numbering of substitutions follows the chain as printed.

Assays:
Conditions in all cases: both partners purified
[1] = molecular target: T1, Human Cdc42 GTPase, wild type, residues 1-179 (human, UniProt P60953 1-179); experiment: stopped-flow fluorescence; ka from kobs against [GBD]; 0.1 μM mantGppNHp·Cdc42 in one syringe, GBD in excess in the second; 50 mM sodium phosphate pH 7.0, 5 mM MgCl2, 1 mM TECP, 25 °C
T1 construct: four extra residues (Gly-Ser-Phe-Thr) from the expression vector left at the N-terminus of Cdc42; human Cdc42, residues 1-179; also called Cdc42WT; wild-type Cdc42; source: E. coli Rosetta, purified (HisTrap, TEV cleavage, second HisTrap, Superdex 75); not shown: His6, N-terminal, cleaved
T1 sequence (P60953 other isoform, or with tags, fused parts or gaps): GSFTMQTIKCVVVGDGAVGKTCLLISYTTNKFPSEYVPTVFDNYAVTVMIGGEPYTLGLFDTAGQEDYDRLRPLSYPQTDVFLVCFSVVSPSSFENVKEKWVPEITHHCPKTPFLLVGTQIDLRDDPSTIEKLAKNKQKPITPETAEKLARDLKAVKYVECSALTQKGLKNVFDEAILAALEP

[2] = molecular target: T2, Human Cdc42 (residues 1-179) with Glu31, Asn39, Glu62, Asp63, Asp65 and Gln74 all substituted by Lys (human, UniProt P60953 1-179, Glu31 substituted by Lys | Asn39 substituted by Lys | Glu62 substituted by Lys …); experiment: as above
T2 construct: four extra residues (Gly-Ser-Phe-Thr) from the expression vector left at the N-terminus of Cdc42; human Cdc42, residues 1-179, with the 6K mutations around the subsite for GBD Csub; Loaded with mantGppNHp or GppNHp; also called Cdc42_(6K); source: E. coli Rosetta, purified (HisTrap, TEV cleavage, second HisTrap, Superdex 75); not shown: His6, N-terminal, cleaved
T2 sequence (P60953 other isoform, or with tags, fused parts or gaps with the stated changes): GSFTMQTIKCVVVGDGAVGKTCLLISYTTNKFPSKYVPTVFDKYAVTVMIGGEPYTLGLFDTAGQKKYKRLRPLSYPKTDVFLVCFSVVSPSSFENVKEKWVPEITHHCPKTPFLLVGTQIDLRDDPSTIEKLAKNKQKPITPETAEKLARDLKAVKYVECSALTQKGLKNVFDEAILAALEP

[3] = molecular target: T1, Human Cdc42 GTPase, wild type, residues …; experiment: other fluorescence titration; Kd from the fluorescence difference before mixing and at equilibrium at seven [GBD] values on the stopped-flow instrument; 0.1 μM mantGppNHp·Cdc42; 50 mM sodium phosphate pH 7.0, 5 mM MgCl2, 1 mM TECP, 25 °C; kd deduced as the product of Kd and ka
[4] = molecular target: T1, Human Cdc42 GTPase, wild type, residues …; experiment: stopped-flow fluorescence; kd measured directly by displacement: 0.1 μM mantGppNHp·Cdc42 and 1 μM GBD mixed with 20 μM GppNHp·Cdc42; 50 mM sodium phosphate pH 7.0, 5 mM MgCl2, 1 mM TECP, 25 °C
[5] = molecular target: T1, Human Cdc42 GTPase, wild type, residues …; experiment: stopped-flow fluorescence; ka from kobs against [GBD] as in buffer, with 1 M urea added
[6] = molecular target: T2, Human Cdc42 (residues 1-179) with …; experiment: other fluorescence titration; Kd from the fluorescence difference before mixing and at equilibrium at seven [GBD] values on the stopped-flow instrument; 0.1 μM mantGppNHp·Cdc42; 50 mM sodium phosphate pH 7.0, 5 mM MgCl2, 1 mM TECP, 25 °C; kd deduced as the product of Kd and ka
[7] = molecular target: T2, Human Cdc42 (residues 1-179) with …; experiment: stopped-flow fluorescence; ka from kobs against [GBD] as in buffer, with 1 M urea added
[8] = molecular target: T2, Human Cdc42 (residues 1-179) with …; experiment: stopped-flow fluorescence; ka from kobs against [GBD] as in buffer, with 2 M urea added

B1: GTPase-binding domain (GBD) of the Wiskott-Aldrich Syndrome protein (WASP), wild type, residues 228-298 (domain or fragment, human)
chain: GSSGKKKISKADIGAPSGFKHVSHVGWDPQNGFDVNNLDPDLRSLFSRAGISEAQLTDAETSKLIYDFIEDQG
notes: two extra residues (Gly-Ser) from the thrombin recognition site left at the N-terminus of GBD; 15N labelled for the NMR experiment; also called GBDWT; wild-type GBD; source: E. coli Rosetta, purified (GSTrap, thrombin, 70 °C heat step, Superdex 75); not shown: GST, N-terminal, cleaved
kon [1]: 5.53e+06 M⁻¹ s⁻¹
kon [2]: 2.14e+07 M⁻¹ s⁻¹
Kd [3]: 114 ± 9 nM
koff [3]: 0.63 s⁻¹
koff [4]: 0.696 ± 0.011 s⁻¹
fold decrease of ka at 1 M urea relative to no urea [5]: 1.6 fold

B2: WASP GBD (residues 228-298) with Lys230Lys231Lys232 changed to Glu (domain or fragment, human)
chain: B1 chain with K5E, K6E, K7E
notes: two extra residues (Gly-Ser) from the thrombin recognition site left at the N-terminus of GBD; also called GBD3E; source: E. coli Rosetta, purified (GSTrap, thrombin, 70 °C heat step, Superdex 75); not shown: GST, N-terminal, cleaved
kon [1]: 97000 M⁻¹ s⁻¹
fold increase in kd relative to GBDWT [3]: 7 fold

B3: WASP GBD (residues 228-298) with Lys230Lys231Lys232 substituted by Ala (domain or fragment, human)
chain: B1 chain with K5A, K6A, K7A
notes: two extra residues (Gly-Ser) from the thrombin recognition site left at the N-terminus of GBD; 15N labelled for the NMR experiment; also called GBD3A; source: E. coli Rosetta, purified (GSTrap, thrombin, 70 °C heat step, Superdex 75); not shown: GST, N-terminal, cleaved
kon [1]: 920000 M⁻¹ s⁻¹
kon [2]: 1.09e+07 M⁻¹ s⁻¹
fold increase in kd relative to GBDWT [3]: 2 fold
fold weakening in binding affinity relative to GBDWT [3]: 13 fold
fold decrease in kd relative to Cdc42WT [6]: 121 fold
fold higher affinity than GBDWT-Cdc42WT [6]: ~100 fold
fold increase in binding affinity relative to Cdc42WT [6]: ~1500 fold
fold decrease of ka at 1 M urea relative to no urea [5]: 3.1 fold
fold decrease of ka at 1 M urea relative to no urea [7]: 3.5 fold
fold decrease of ka at 2 M urea relative to no urea [8]: 9.2 fold

B4: WASP GBD (residues 228-298) with the 3A mutations plus Arg273 to Glu and Gly275 to Asp (domain or fragment, human)
chain: B1 chain with K5A, K6A, K7A, R48E, G50D
notes: two extra residues (Gly-Ser) from the thrombin recognition site left at the N-terminus of GBD; also called GBD_(3A/ED); source: E. coli Rosetta, purified (GSTrap, thrombin, 70 °C heat step, Superdex 75); not shown: GST, N-terminal, cleaved
fold reduction of ka relative to GBD3A [1]: 2.5 fold
fold increase of Kd relative to GBD3A [3]: 3.7 fold

B5: Truncated WASP GBD (residues 238-298) with the BR segment deleted (domain or fragment, human)
chain: GSIGAPSGFKHVSHVGWDPQNGFDVNNLDPDLRSLFSRAGISEAQLTDAETSKLIYDFIEDQG
notes: two extra residues (Gly-Ser) from the thrombin recognition site left at the N-terminus of GBD; also called GBDΔBR; source: E. coli Rosetta, purified (GSTrap, thrombin, 70 °C heat step, Superdex 75); not shown: GST, N-terminal, cleaved
kon [1]: 40000 M⁻¹ s⁻¹
kon [2]: 4.03e+06 M⁻¹ s⁻¹
fold increase in kd relative to GBDWT [3]: 10 fold
fold weakening in binding affinity relative to GBDWT [3]: 1420 fold
fold decrease in kd relative to Cdc42WT [6]: 16 fold
fold increase in binding affinity relative to Cdc42WT [6]: ~1500 fold
